Experimental findings from publication PMC6515530, “Characterization and Dye Decolorization Potential of Two Laccases from the Marine-Derived Fungus Pestalotiopsis sp” (International Journal of Molecular Sciences, 2019) are described below.

Holding throughout (experiment): purified protein
For data set [1], the system named is T1, COc1cc(C=NN=Cc2cc(OC)c(O)c(OC)c2)cc(OC)c1O.
T1 construct: secreted by Aspergillus niger D15#26, purified
Type of data set: biochemical, Pestalotiopsis sp. KF079. As to conditions: pH 5, 30 °C.

In data set [2] the test system is CCn1c(=NN=c2sc3cc(S(=O)(=O)O)ccc3n2CC)sc2cc(S(=O)(=O)O)ccc21. The conditions noted are these: pH 4, 30 °C.
Data set [3] relates to COc1cc(-c2ccc(N)c(OC)c2)ccc1N. The conditions noted are these: pH 5, 30 °C.

As a reminder, the Km is the concentration of substrate that gives half-maximal velocity. In general, kcat refers to the number of substrate molecules converted per active site and unit of time at saturation. By kcat/Km is commonly meant the second-order rate constant that governs catalysis at low substrate concentration. As for PsLac1 (Pestalotiopsis sp.), in data set [1], the Km was 4 µM, the kcat came to 0.365 s⁻¹ and the kcat/Km amounted to 82900 M⁻¹ s⁻¹. Further, in data set [2], the Michaelis constant (Km) is 24 µM, the catalytic constant (kcat) worked out at 0.696 s⁻¹ and the kcat/Km came out at 29200 M⁻¹ s⁻¹. In data set [3], the Michaelis-Menten constant (Km) was found to be 647 µM, the kcat is 0.057 s⁻¹ and the catalytic efficiency (kcat/Km) stood at 89 M⁻¹ s⁻¹.

In the case of PsLac2 (Pestalotiopsis sp.), in data set [1], the Michaelis-Menten constant (Km) was 101 µM, the kcat turned out to be 0.573 s⁻¹ and the kcat/Km is 5670 M⁻¹ s⁻¹. In data set [2], the Michaelis-Menten constant (Km) worked out at 100 µM, the kcat stood at 0.431 s⁻¹ and the kcat/Km is 4330 M⁻¹ s⁻¹. Also, in data set [3], the Km is 144 µM, the kcat was 0.748 s⁻¹ and the catalytic efficiency (kcat/Km) worked out at 5190 M⁻¹ s⁻¹.
